Substrate in the data set: Cc1cc(=O)oc2c(F)c(OP(=O)(O)O)c(F)cc12
In words: DiFMUP fluorescence phosphatase assay, Michaelis-Menten fit. It counts as biochemical, Homo sapiens. As to conditions: 20 mM tris-acetate pH 6.0, 150 mM NaCl, BSA 0.1 mg/ml.

B1: RPAP2_32–345 (Homo sapiens) (protein)
chain: LKQEDASKRKAELEAAVRKKIEFERKALHIVEQLLEENITEEFLMECGRFITPAHYSDVVDERSIVKLCGYPLCQKKLGIVPKQKYKISTKTNKVYDITERKSFCSNFCYQASKFFEAQIPKTPVWVREEERHPDFQLLKEEQSGHSGEEVQLCSKAIKTSDIDNPSHFEKQYESSSSSTHSDSSSDNEQDFVSSILPGNRPNSTNIRPQLHQKSIMKKKAGHKANSKHKDKEQTVVDVTEQLGDCKLDSQEKDATCELPLQKVNTQSSSNSTLPERLKASENSESEYSRSEITLVGISKKSAEHFKRKFAKSN
Regarding B1, the Km (commonly the concentration of substrate that gives half-maximal velocity) was 34.20 ± 0.84 µM and the catalytic efficiency (kcat/Km) (usually the turnover number divided by the Michaelis constant) came out at 333000 M⁻¹ s⁻¹.

B2: RPAP2_32–274 (Homo sapiens) (protein)
chain: LKQEDASKRKAELEAAVRKKIEFERKALHIVEQLLEENITEEFLMECGRFITPAHYSDVVDERSIVKLCGYPLCQKKLGIVPKQKYKISTKTNKVYDITERKSFCSNFCYQASKFFEAQIPKTPVWVREEERHPDFQLLKEEQSGHSGEEVQLCSKAIKTSDIDNPSHFEKQYESSSSSTHSDSSSDNEQDFVSSILPGNRPNSTNIRPQLHQKSIMKKKAGHKANSKHKDKEQTVVDVTEQL
For B2, the Km came out at 30.95 ± 1.75 µM and the kcat/Km is 833000 M⁻¹ s⁻¹.

(Values after article PMC4801511.)
